Reference: patent US20030236190A1 (published 2003)
Positions of bridges follow the written chain, without caps; N, C: chain ends. No end group written: not given here.

B1: B6Hα-2-C7-IR (peptide)
peptide: RGIVAMVEATEVGSDHDPFYHKLSELVQGS
B2: 20E2B-3-D12-IGFR (peptide)
peptide: QGNVLDFYGWIGRLLAKQGSD
B3: 20E2B-2-B3-IGFR (peptide)
peptide: ICTGQGFYQVLCGLLRGTSAR
modifications: disulfide 2-12 (inferred)
B4: 20E2B-4-H3-IGFR (peptide)
peptide: KLHNLMFYYGLQRLVWGAGLG
B5: 20E22-3-E8-IGFR (peptide)
peptide: LRIANLFYQRLWDLAFGGGG
B6: NNRPγ-4-A1-IR (peptide)
peptide: IIGGFYSYFNSVLRLGT
B7: 20E2H-3-E3-IGFR (peptide)
peptide: PDLHKGFYAQLAQLIRGQLLS
B8: 20E2B-3-C4-1GFR (peptide)
peptide: ASSASGFYELLQRLAGLGLEV
B9: 20E2H-3-E12-IGFR (peptide)
peptide: VATSQGFYSGLSELLQGGGNV
B10: 20E22-4-F8-IGFR (peptide)
peptide: PVGVQGFYEGLSRLVLGRGGW
B11: 20E2B-4-H8-IGFR (peptide)
peptide: PAGPCGFYCGLGLLLHGDQSP
modifications: disulfide 5-9 (inferred)
B12: 20E2B-4-E9-IGFR (peptide)
peptide: RCQGTGFYTCIQELIGFGDPD
modifications: disulfide 2-10 (inferred)
B13: 20E2A-4-F11-IGFR (peptide)
peptide: QGGSASFYDAIDRLLRMRIGG
B14: B6Hα-3-F11-IR (peptide)
peptide: RGMKEEVLVGGSTDPFYHKLSELLQGS
B15: 20E2B-3-C6-IGFR (peptide)
peptide: VEGRGLFYDLLRQLLARRQNG
B16: 20E22-3-C2-IGFR (peptide)
peptide: GNGDGMFYQLLSLLVGRDMHV
B17: 20E2B-2-22-IGFR (peptide)
peptide: PGTDLGFYQALRCVVIQGACD
modifications: not fully specified (bridges); cysteine pairing not given here
B18: 20E28-3-D6-IGFR (peptide)
peptide: DSVGDNFYQLLESLVGGHGVG

What follows are binders tested against T1, Insulin receptor prepared according to Bass et al., 1996: soluble human insulin receptor-immunoglobulin heavy … (human, UniProt P06213 28-956) (assay: phage ELISA, vs IGF-1R).
T1 construct: extracellular domain; Eu3+-labelled in TR-FRET; also called IR; sIR-Fc; not shown: immunoglobulin heavy chain constant domains that replace the transmembrane and i

IR/IGF-1R Comparison	Binder
0.1 ratio	B1
0.1 ratio	B2
0.1 ratio	B3
0.1 ratio	B4
0.1 ratio	B5
0.2 ratio	B6
0.1 ratio	B7
0.2 ratio	B8
0.1 ratio	B9
0.1 ratio	B10
0.2 ratio	B11
0.2 ratio	B12
0.1 ratio	B13
0.1 ratio	B14
0.1 ratio	B15
0.1 ratio	B16
0.1 ratio	B17
0.1 ratio	B18

What follows are binders tested against T2, Soluble IGF-1R (R&D Systems, Cat. # 391-GR/CF); recombinant human IGF-1R (human, UniProt P08069 31-935) (assay: phage ELISA, vs IR).
T2 construct: extracellular domain; Eu3+-labelled in the TR-FRET assays; also called sIGF-1R; rhIGF-1R

IGF-1R/IR Comparison	Binder
6.7 ratio	B1
7.3 ratio	B2
7.4 ratio	B3
13.9 ratio	B4
11.1 ratio	B5
6 ratio	B6
13.1 ratio	B7
6.2 ratio	B8
7.3 ratio	B9
9.7 ratio	B10
5.9 ratio	B11
5.6 ratio	B12
14.6 ratio	B13
11.7 ratio	B14
14.8 ratio	B15
13.8 ratio	B16
8.1 ratio	B17
6.9 ratio	B18

Each binder was assayed against T1, Insulin receptor prepared according to … (assay: phage ELISA vs milk).

Ratio over Background	Binder
1 fold	B1
0.9 fold	B2
0.7 fold	B3
1.1 fold	B4
1.5 fold	B5
1.8 fold	B6
1.3 fold	B7
3.3 fold	B8
0.8 fold	B9
0.8 fold	B10
0.9 fold	B11
0.9 fold	B12
1.3 fold	B13
1.6 fold	B14
1.1 fold	B15
0.6 fold	B16
0.6 fold	B17
2.6 fold	B18

What follows are binders tested against T2, Soluble IGF-1R (R&D Systems, Cat. # …) (assay: phage ELISA vs milk).

Ratio over Background	Binder
6.7 fold	B1
6.2 fold	B2
5.3 fold	B3
14.8 fold	B4
16.7 fold	B5
10.9 fold	B6
16.3 fold	B7
20.4 fold	B8
6 fold	B9
7.3 fold	B10
5.3 fold	B11
5.2 fold	B12
18.8 fold	B13
18.7 fold	B14
16.8 fold	B15
8.9 fold	B16
4.9 fold	B17
17.8 fold	B18
